# Experimental data: patent US6596500B1, “Binding of retinoids to M6P/IGF-II receptor” (The General Hospital Corporation, priority 1998, dated 2003)
# B1: β-glucuronidase: M6P-containing lysosomal enzyme (protein, UniProt P08236 23-651, looked up)
# Beta-glucuronidase: LQGGMLYPQESPSRECKELDGLWSFRADFSDNRRRGFEEQWYRRPLWESGPTVDMPVPSSFNDISQDWRLRHFVGWVWYEREVILPERWTQDLRTRVVLRIGSAHSYAIVWVNGVDTLEHEGGYLPFEADISNLVQVGPLPSRLRITIAINNTLTPTTLPPGTIQYLTDTSKYPKGYFVQNTYFDFFNYAGLQRSVLLYTTPTTYIDDITVTTSVEQDSGLVNYQISVKGSNLFKLEVRLLDAENKVVANGTGTQGQLKVPGVSLWWPYLMHERPAYLYSLEVQLTAQTSLGPVSDFYTLPVGIRTVAVTKSQFLINGKPFYFHGVNKHEDADIRGKGFDWPLLVKDFNLLRWLGANAFRTSHYPYAEEVMQMCDRYGIVVIDECPGVGLALPQFFNNVSLHHHMQVMEEVVRRDKNHPAVVMWSVANEPASHLESAGYYLKMVIAHTKSLDPSRPVTFVSNSNYAADKGAPYVDVICLNSYYSWYHDYGHLELIQLQLATQFENWYKKYQKPIIQSEYGAETIAGFHQDPPLMFTEEYQKSLLEQYHLGLDQKRRKYVVGELIWNFADFMTEQSPTRVLGNKKGIFTRQRQPKSAAFLLRERYWKIANETRYPHSVAKSQCLENSLFT
# Target: T1, partially purified rat M6P/IGF-II receptor (Rattus norvegicus, UniProt G3V824)
# T1 construct: both intact (300 kDa) and truncated (260 kDa) forms of M6P/IGF-II receptor exist in the serum; from tissue; host or cells: neonatal rat serum, FPLC Sepharose-12 fraction
# Experiment: Equilibrium [3H]RA ligand-binding assay (dextran-charcoal), Scatchard analysis
# Conditions: β-glucuronidase 2,500 units/ml
# Method: Partially purified M6P/IGF-II receptors from neonatal rat serum was prepared using a Fast Protein Liquid Chromatography (FPLC) system equipped with a Sepharose-12 column (Pharmacia). The partially purified M6P/IGF2R protein was diluted in binding buffer (20 mM Tris-HCl, pH 8.0/150 mM NaCl/1mM DTT/protease inhibitors) at a concentration of 50 Ag/ml. […] Incubation was carried out at 22° C. for 2 h in the dark. After the incubation, 0.2 ml chilled charcoal-dextran suspension (charcoal/dextran/glycerol=0.5%/0.05%/20%) was added to remove the unbound ligand.
# T1 sequence (G3V824 36-2481): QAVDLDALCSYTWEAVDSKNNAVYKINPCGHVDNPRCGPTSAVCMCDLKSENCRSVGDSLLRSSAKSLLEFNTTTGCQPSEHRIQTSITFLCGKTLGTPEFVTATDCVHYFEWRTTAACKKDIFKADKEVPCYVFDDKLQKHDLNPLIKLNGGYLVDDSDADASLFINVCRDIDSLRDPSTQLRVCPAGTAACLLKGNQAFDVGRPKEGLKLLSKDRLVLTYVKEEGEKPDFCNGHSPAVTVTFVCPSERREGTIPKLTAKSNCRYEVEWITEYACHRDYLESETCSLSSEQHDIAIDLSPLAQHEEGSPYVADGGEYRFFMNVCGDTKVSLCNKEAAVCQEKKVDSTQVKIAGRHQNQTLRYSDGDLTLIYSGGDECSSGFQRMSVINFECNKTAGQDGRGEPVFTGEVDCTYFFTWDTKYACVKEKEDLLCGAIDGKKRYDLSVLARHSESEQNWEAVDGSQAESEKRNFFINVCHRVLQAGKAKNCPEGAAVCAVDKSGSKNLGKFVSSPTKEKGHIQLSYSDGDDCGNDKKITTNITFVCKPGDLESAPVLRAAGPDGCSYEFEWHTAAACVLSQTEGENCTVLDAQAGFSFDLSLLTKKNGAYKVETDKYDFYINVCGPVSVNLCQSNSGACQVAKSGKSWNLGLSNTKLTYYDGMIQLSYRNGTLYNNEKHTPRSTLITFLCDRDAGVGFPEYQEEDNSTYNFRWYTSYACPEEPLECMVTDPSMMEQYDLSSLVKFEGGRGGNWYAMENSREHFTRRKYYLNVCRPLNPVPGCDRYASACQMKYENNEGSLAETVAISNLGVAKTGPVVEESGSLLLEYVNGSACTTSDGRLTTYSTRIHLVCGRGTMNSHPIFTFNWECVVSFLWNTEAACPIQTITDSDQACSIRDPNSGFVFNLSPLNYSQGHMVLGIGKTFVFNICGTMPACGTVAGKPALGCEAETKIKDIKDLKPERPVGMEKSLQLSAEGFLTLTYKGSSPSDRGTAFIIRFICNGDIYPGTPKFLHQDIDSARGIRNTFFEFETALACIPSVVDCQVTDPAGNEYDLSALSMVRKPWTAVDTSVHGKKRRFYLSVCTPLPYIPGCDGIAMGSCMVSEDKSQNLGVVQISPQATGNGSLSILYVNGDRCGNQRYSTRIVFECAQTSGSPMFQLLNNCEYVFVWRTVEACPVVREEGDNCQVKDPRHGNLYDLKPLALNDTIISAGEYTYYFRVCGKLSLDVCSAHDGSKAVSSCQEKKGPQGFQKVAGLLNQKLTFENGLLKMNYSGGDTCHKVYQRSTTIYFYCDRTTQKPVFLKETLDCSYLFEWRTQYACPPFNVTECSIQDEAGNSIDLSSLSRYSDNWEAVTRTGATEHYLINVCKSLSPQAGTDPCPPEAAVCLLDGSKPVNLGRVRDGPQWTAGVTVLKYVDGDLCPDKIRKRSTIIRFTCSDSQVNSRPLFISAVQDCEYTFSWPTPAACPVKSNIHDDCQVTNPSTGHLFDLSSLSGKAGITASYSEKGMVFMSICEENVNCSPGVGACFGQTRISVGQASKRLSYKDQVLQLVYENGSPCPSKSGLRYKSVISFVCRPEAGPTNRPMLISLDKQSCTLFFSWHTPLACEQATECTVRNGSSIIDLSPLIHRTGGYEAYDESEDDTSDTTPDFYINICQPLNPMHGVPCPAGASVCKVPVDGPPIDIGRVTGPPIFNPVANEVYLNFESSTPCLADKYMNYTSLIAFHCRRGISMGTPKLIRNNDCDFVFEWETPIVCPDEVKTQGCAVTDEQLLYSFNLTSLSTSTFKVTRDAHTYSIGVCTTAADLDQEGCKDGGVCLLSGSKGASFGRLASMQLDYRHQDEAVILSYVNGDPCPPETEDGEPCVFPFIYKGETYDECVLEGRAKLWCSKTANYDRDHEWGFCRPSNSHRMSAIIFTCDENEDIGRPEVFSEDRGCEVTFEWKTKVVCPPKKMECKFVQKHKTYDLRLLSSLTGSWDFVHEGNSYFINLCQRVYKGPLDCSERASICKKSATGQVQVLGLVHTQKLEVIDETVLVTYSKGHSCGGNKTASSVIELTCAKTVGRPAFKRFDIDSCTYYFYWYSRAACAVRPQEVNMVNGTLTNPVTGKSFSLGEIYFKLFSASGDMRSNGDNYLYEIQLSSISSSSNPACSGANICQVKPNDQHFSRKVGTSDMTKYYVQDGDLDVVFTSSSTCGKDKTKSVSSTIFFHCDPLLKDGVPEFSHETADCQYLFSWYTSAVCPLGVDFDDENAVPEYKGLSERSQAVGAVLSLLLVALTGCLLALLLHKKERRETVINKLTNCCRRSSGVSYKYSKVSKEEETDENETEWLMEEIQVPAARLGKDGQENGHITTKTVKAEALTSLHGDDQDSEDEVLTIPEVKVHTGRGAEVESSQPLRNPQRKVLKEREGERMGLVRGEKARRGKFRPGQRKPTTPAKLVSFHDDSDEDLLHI
molecule,measurement,value
B1,Effect on [3H]RA binding to the receptor,increase [^3H]RA binding
